Assay results published in patent US20250216381A1 (published 2025).

T1: ARHGEF16 R150W peptide on HLA-DRA*01:01 / HLA-DRB1*11:01 (human)
T1 peptide: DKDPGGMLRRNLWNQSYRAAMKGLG

T2: HELZ2 P775A peptide on HLA-DPA1*01:03 / HLA-DPB1*104:01 (human)
T2 peptide: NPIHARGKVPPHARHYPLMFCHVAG

T3: HELZ2 P775A peptide on HLA-DPA1*03:01 / HLA-DPB1*104:01 (human)
T3 peptide: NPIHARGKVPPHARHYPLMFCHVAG

T4: ERGIC2 L176P peptide on HLA-A*03:01 (human)
T4 peptide: RIHGHPYVNK


Assays:
Assay in all cases: activation reporter or marker
[1] = target: T1, ARHGEF16 R150W peptide on HLA-DRA*01:01 …
[2] = target: T2, HELZ2 P775A peptide on HLA-DPA1*01:03 / …
[3] = target: T3, HELZ2 P775A peptide on HLA-DPA1*03:01 / …
[4] = target: T4, ERGIC2 L176P peptide on HLA-A*03:01

| binding result [1] | Binder | also measured |
| --- | --- | --- |
| recognises | 8434-TCR23 (TCR, V domains shown) Valpha: QQQVKQSPQSLIVQKGGISIINCAYENTAFDYFPWYQQFPGKGPALLIAIRPDVSEKKEGRFTISFNKSAKQFSLHIMDSQPGDSATYFCAASRASGGSYIPTFGRGTSLIVHP Vbeta: GITQSPKYLFRKEGQNVTLSCEQNLNHDAMYWYRQDPGQGLRLIYYSQIVNDFQKGDIAEGYSVSREKKESFPLTVTSAQKNPTAFYLCATKILAGANTGELFFGEGSRLTVL |  |
|  | 6932-TCR5 (TCR, V domains shown) Valpha: RKEVEQDPGPFNVPEGATVAFNCTYSNSASQSFFWYRQDCRKEPKLLMSVYSSGNEDGRFTAQLNRASQYISLLIRDSKLSDSATYLCVVKNQGGKLIFGQGTELSVKP Vbeta: GVTQTPRYLIKTRGQQVTLSCSPISGHRSVSWYQQTPGQGLQFLFEYFSETQRNKGNFPGRFSGRQFSNSRSEMNVSTLELGDSALYLCASILGGGRGDTQYFGPGTRLTVL | binding result [2]: recognises; binding result [3]: recognises |
| recognises | 8434-TCR20 (TCR, V domains shown) Valpha: KQEVTQIPAALSVPEGENLVLNCSFTDSAIYNLQWFRQDPGKGLTSLLLIQSSQREQTSGRLNASLDKSSGRSTLYIAASQPGDSATYLCAVRHSGNTPLVFGKGTRLSVIA Vbeta: AVVSQHPSRVICKSGTSVKIECRSLDFQATTMFWYRQFPKQSLMLMATSNEGSKATYEQGVEKDKFLINHASLTLSTLTVTSAHPEDSSFYICSASGGGRTEAFFGQGTRLTVV |  |
| recognises | 8434-TCR21 (TCR, V domains shown) Valpha: KQEVTQIPAALSVPEGENLVLNCSFTDSAIYNLQWFRQDPGKGLTSLLLIQSSQREQTSGRLNASLDKSSGRSTLYIAASQPGDSATYLCAVRRDGTASKLTFGTGTRLQVTL Vbeta: AVVSQHPSWVICKSGTSVKIECRSLDFQATTMFWYRQFPKQSLMLMATSNEGSKATYEQGVEKDKFLINHASLTLSTLTVTSAHPEDSSFYICSASFPGRGNEQFFGPGTRLTVL |  |
|  | 2599-TCR12 (TCR, V domains shown) Valpha: EDKVVQSPLSLVVHEGDTVTLNCSYEVTNFRSLLWYKQEKKAPTFLFMLTSSGIEKKSGRLSSILDKKELFSILNITATQTGDSAIYLCGGLNAGGTSYGKLTFGQGTILTVHP Vbeta: EPEVTQTPSHQVTQMGQEVILRCVPISNHLYFYWYRQILGQKVEFLVSFYNNEISEKSEIFDDQFSVERPDGSNFTLKIRSTKLEDSAMYFCASLGASTYEQYFGPGTRLTVT | binding result [4]: recognises |
